# Source: the DeepSol protein solubility set
# Experiment: soluble on expression in E. coli; label from the status in PepcDB or PDB records
row,Sequence,soluble on expression in E. coli
1,MKIGIIGATGRAGSRILEEAKNRGHEVTAIVRNAGKITQTHKDINILQKDIFDLTLSDLSDQNVVVDAYGISPDEAEKHVTSLDHLISVLNGTVSPRLLVVGGAASLQIDEDGNTLLESKGLREAPYYPTARAQAKQLEHLKSHQAEFSWTYISPSAMFEPGERTGDYQIGKDHLLFGSDGNSFISMEDYAIAVLDEIERPNHLNEHFTVAGKLEHHHHHH,soluble
2,MKIGILTQPLSNNYGGILQALALQTVLRSMGHETVILSREYDYPPFRLCLMRILSVLKCIVRKYILRDNRAIIANPFLHFYATDKTQVYDDNEIQAFIRKNLKCSVRLQSTWILKIYVRLHHFDAFLVGSDQVWRESFSPCITNFFLDFLSQKCRAKRIAYGASFGVEQNPISVASLNQCVELAKRFDAISVREQSGVKIMKETFHLSACQVLDPTLLLPVDFYRSFMQKSDMDSSGLVSYLLDGNEEKRNIIAVAREQLQLSQTELLLFPSRYKDEVPRFSSVSSWLSAFANADFVVTDSFHGCVFSIIFRKPFVVISNSGRGNERFFSLLDTFGLNDRLVFSYEEFVDKEEILLIEQDYTEVERKYENLKVKSLEFLFQALNEN,not soluble
3,MKIGYLGPKATFTEAAAALLFPSQPREPYDTIPDCIDAAAAGEIEAAVVPLENALEGSVNLTLDYLIHEQPLPIIGEIVVPIEQHLMVHPYFTPHWREVKEVYSHSHAIAQCRKFLHTVLKGAKQVPMTSTSAAAKFVSEHPHLPAAAIANRLAAEKYGLVIVQENVHDYDYNHTRFIVVSRRKEPLSPASPLYAGDKTTVVVMLPQDRPGALHQVLSAFAWRRLNLTKIESRPAKTGLGNYFFIIDIDAPMDDVLIPGAIAEIEALGCTVQLLGSYPYYFA,not soluble
4,MKIIDFRLRPPAMGFLNARIYTRPDIRNRFTRQLGFEPAPSAEEKSLELMFEEMAAAGIEQGVCVGRNSSVLGSVSNADVAAVAKAYPDKFHPVGSIEAATRKEAMAQMQEILDLGIRIVNLEPGVWATPMHVDDRRLYPLYAFCEDNGIPVIMMTGGNAGPDITYTNPEHIDRVLGDFPDLTVVSSHGNWPWVQEIIHVAFRRPNLYLSPDMYLYNLPGHADFIQAANSFLADRMLFGTAYPMCPLKEYTEWFLTLPIKPDAMEKILHGNAERLLAQAGRLEHHHHHH,not soluble
5,MKIISAEQVHQNLNFEELIPLLKQSFSRPFSMPQRQVYSLAPEQSENHDAFALLPSWNEEVIGNKAFTYFPDNAKKHDLPGLFSKIMLFKRQTGEPLALVDGTSVTYWRTAAISALASQLLSRKNSQHLMLFGTGNLASYLVKAHLTVRDIKQVTLWGRNAKKVSKLIADFSILYPAVTFKTSVDVNAEVASADIICCATGAKTPLFDGNSVSAGCHIDCLGNHMTDARECDTTTILRARVFVDSLTNTLNEAGELLIPMAEDAFNKDEIVGELADMCKTPSMLRQSSDEITLFKSVGTAISDLVAAHSVVEKLAD,not soluble
6,MKILITGGAGFIGSAVVRHIIKNTQDTVVNIDKLTYAGNLESLSDISESNRYNFEHADICDSAEITRIFEQYQPDAVMHLAAESHVDRSITGPAAFIETNIVGTYALLEVARKYWSALGEDKKNNFRFHHISTDEVYGDLPHPDEVENSVTLPLFTETTAYAPSSPYSASKASSDHLVRAWRRTYGLPTIVTNCSNNYGPYHFPEKLIPLVILNALEGKPLPIYGKGDQIRDWLYVEDHARALHMVVTEGKAGETYNIGGHNEKKNLDVVFTICDLLDEIVPKATSYREQITYVADRPGHDRRYAIDAGKISRELGWKPLETFESGIRKTVEWYLANTQWVNNVKSGAYQSWIEQNYEGRQ,soluble
7,MKILLIGGSGNIGRAIAAELSGRHEIIAAGRHHGDVRVDIEDEQSIAAMYRQLPRLDAVAVATGGRNGHVGPLAEMNAERYRVGLDAKLMGQVNLVLRGLDKVADGGSFTLVGGAWQPQAIVPLLSNVYMANAALEGFVNAAAVELPRRLRINLVSPLLLAESEAEYGPLFRGVPLVEARQVARAYSLSIEGLEHHHHHH,not soluble
8,MKIMINPKYEYLREYVERIPKDFETIGTVIHSGRNLIKMITVDGLDINVKRYTIPPLINRIAYAFFRPSKGKRAFVYPEKLLEKGFETPCPIAYIEETKMGLIGHSYFMSIQSPYRYNFCQFGNADIKSCEDVVTAFAEFTARLHEAGILHLDYSPGNILYDKIGEEYHFSLVDINRMHFGEVDIKKGCANFARLWGQTPFFILLGKEYAHSRGMDEEECVRLVLHYRKKFWNRYRRRHQVWFQLDI,not soluble
